Series [1] concerns the molecule itself. In words: crystal structure; GQTVTK 68 mg/mL in water, hanging drop, 20 °C, 2.0 M (NH4)2SO4, 0.1 M sodium HEPES pH 7.5, 2% v/v PEG 400; 1.10 Å.
Series [2] concerns the molecule itself. Briefly: crystal structure; AALALL form 1: batch, peptide in water, acetonitrile and TFA about 45:45:10; needle crystals; 1.12 Å.
Series [3] deals with the molecule itself. Briefly: crystal structure; GSQASS 100 mg/mL in water, hanging drop, 20 °C, 1.0 M Na,K tartrate, 0.2 M Li2SO4, Tris pH 7.0; needle crystals; 1.30 Å.

These results are taken from article PMC10127185, “Low complexity domains of the nucleocapsid protein of SARS-CoV-2 form amyloid fibrils” (Nature Communications, 2023).

B1: NCAP steric zipper segment 243GQTVTK248 (peptide)
peptide: GQTVTK
notes: Nucleocapsid protein (NCAP) of SARS-CoV-2, residues 243-248, within the central LCD
In the case of B1, in series [1], the binding result was “binds”.

B2: NCAP steric zipper segment 217AALALL222 (peptide)
peptide: AALALL
notes: Nucleocapsid protein (NCAP) of SARS-CoV-2, residues 217-222, within the central LCD; also called H-AALALL-OH
Consider B2, for which the binding result in series [2] is “binds”.

B3: NCAP steric zipper segment 179GSQASS184 (peptide)
peptide: GSQASS
notes: Nucleocapsid protein (NCAP) of SARS-CoV-2, residues 179-184, within the central LCD; non-phosphorylated peptide
Consider B3, for which the binding result in series [3] is “binds”.
